Experimental data published in the DeepSol protein solubility set.

Assay: soluble on expression in E. coli; label from the status in PepcDB or PDB records

Soluble on expression in E. coli, soluble:
MLGFNGERLDPASGAFHLGNGYRAYSPALMRFHCPDSLSPFGASGVNPYAYCAGDPANRADPSGHLSWQAWTGIGLAVASLALAAFTAGTSIIASGGIVAALESASAITLAEGGLAVVSDMTAIACGAMEASDPQAAAALSWVSLACGAMGMVHAGYGAVRGIDRKLGAFLQENSRFLGKITRGERDSLGIPLGGGLTKCFRPASEMEGASAGIALGRLHRSSSTPDMEAFLALPAAKRKRIGSGVSGVVYEAGRGWVVKIAIDPLPIETMEREAEIFRAVHGPRSALVAENMLWMKRIPGVPVNTLNLLADEKAEMWQKTLAEVKRLQEMGIHHGDPSWNNLLFDQQTGTVSFIDFGKSRYLDGFAPATLEHHHHHH
MGHHHHHHSHMSLKGKRIGFGFTGSHCTYEEVMPHLEKLIAEGAEVRPVVSYTVQSTNTRFGEGAEWIKKIEEITGFKAINSIVGAEPLGPKIPLDCMVIAPLTGNSMSKFANAMTDSPVLMAAKATLRNGKPVVLAVSTNDALGLNGVNLMRLMATKNIYFVPFGQDAPEKKPNSMVARMELLEDTVLEALQGKQLQPVVVEKFRYMN
MGYPVILHLRGRRAVVVGGGKVAARKIHGLLEAGAEIVMIAPEAEPELQALAAGGMIVWKKKRFDPDDLAEAFLVIAATNDRKVNEAVTQAASSGQLVNVVDDPERCDFHVPAVIRRGPLTIAVSTGGASPAVARRIRRELEEKYGEEYRPYLEFLQRARGIVLREVEDAEGRKRLFQALAADSFRQSGRWEEEFTRLLAKEKERNKEGERGR
MGPSRWPRGGGRLLGRLYLVVTPRPGWSLEATLDRTERALAGGVEVVQLRAKDWEARPTLALGERMLALARRYGVPFFLNDRPDLAALLGADGVHLGQNDLTPEEARRFFAGMVGRSTHAPEQALRALEEGVDYLSVGPVWETPTKPGRPAAGLAYVRWAAENLGEKPWYAIGGIDLGNLDQVLEAGARRIVVVRAILDAPDPERAARALRERLYGVA
SLSELMGKRVLIIDDNLTSQKILINQAQSWGMFTCAVDSGEKALEWLKRGITFDVAILDMNLPDMNGLELVREIRKQPNCTRLPLIMLSAITETEKTFQSSEEEFVAVLCKPVQRSQLYNVLMEIFSEIPRAPIRVTEG
EVQLQQSGPELVKPGASVKISCKASGYSFTGHLLNWVKQSHGKNLEWIGLVHPHNGAITYNQKFKDKATLTVDRSSTTAYIELVRLTSNDSAVYYCAREDFRYHYSMDYWGQGTSVTVSSAKTTPPSVYPLAPVCGDTTGSSVTLGCLVKGYFPEPVTLTWNSGSLSSGVHTFPAVLQSDLYTLSSSVTVTSSTWPSQSVTCNVAHPASSTKVDKKIVPK
MSLNKEFIMKFSLKSLLTIAAAASTLILAGCGEKAVDNNKVKIGVMAGAEAQVAEVAAKVAKEKYNLDVELVTFTDYVTPNAALDDGSIDANAFQHKPYLDKQIADRGYKLAIVGNTFVYPIAGYSKQIKSVDELQDGARIAVPNDPTNLGRSLLLLQQQGLLKLREDVGLLATVRDIVENPKKLEILELDAAQLPRSLDDVALSIINTTYASSINLTPEKDGIFVENKESPYVNILVAREANVNAENVQNFKKAYQTDEVAKAASEIFQGGAVKGWEGGSHHHHHH
MSLSKQISNLNSSSNKPKILSLFSGCGGLDLGFHQAGCETVWANDFSHWACESFRKNIGDVIVEGDIEQINPNDPTIPDCDIILGGFPCQDFSMIWKQPGLEGERGNLYKSFLRFVNAKKPKVFVAENVKGLLTANKKKAIQQIITDFENCGYYVQAKLYNFAEFGVPQFRERVLIVGVRLDTGFDFRHPEPTHNETGENGLKPYVTAGQAISNIPQNASNNELLKISDKTRRMLELIPEGGNFTDIPKDHPLYVKGMISHVYRRMHRNEPSKTIIAAGGGGTWGYHFPEPRAFTNRERARLQSFPDDFEFVGSTTEVRRQIGNAVPPQGVVELAKSILPIFSDNYEKVDLHEKLVEEKEILFHDRLSKIRGGKEGHHHHHH
MSLSKKSILLLCCSLCFISATKAVTPVRNVRNSQVNSKAKTERTKPSDSVRYISNMIADRLEFRNKISSEKEVRKAEYENRLAMEALNYPAIDLYGEDSWSEYVNPFVGAGTDVEIPNSYDIDCSSFVMPVEDKQVTSQFGYRRRFGRMHYGIDLSVNRGDTIRAAFDGKVRVRSYEARGYGYYIVLRHPNGLETVYGHMSRQLVDENQIVRAGQPIGLGGSTGRSTGPHLHFETRFMGIPINPSTIIDFDNGVPLRDIYTFKRGSNSRYAKASKTSSRYAKKGKKGRQASSPMTYRIKKGDTLETIAKRHGTSVQKLCATNGIGKSKILTPGKALRIKEGHHHHHH
MSELSQLSPQPLWDIFAKICSIPHPSYHEEALAAHILEWAKEKGIYAERDQVGNILLRKAATAGMENRKPVVLQAHLDMVPQKNNDTVHDFTTDPIQPYVDGEWLKARGTTLGADNGIGMASALAVLADPSVEHGPLEVLLTMTEEAGMDGAFGLQPNWLQGEILINTDSEEEGEIYMGCAGGIDFITRLPLVREVPPAGYQTLKLTIKGLKGGHSGGDIHLGLGNANKLLARFLFEQAEALDIRILDLNGGTLRNAIPREAFATLSLPAANVEQLKTLSQDYLAVLKNELSAVEKNLTVLVEANDSNEHPLTQDSRDRLLGLLNATPNGVIRMSDDVKGVVETSLNLGVVTMEDDHAEIICLIRSLIDSGKDAVVGTLTALGQLAGAKTSPKGGYPGWQPDAHSPVMALVRETYQKQFNKTPNIMVIHAGLECGLFKKPYPDMDMVSIGPTITGPHSPDEQVHIGSVDLYWKLLTELLKAIPPRALEHHHHHH

Soluble on expression in E. coli, not soluble:
MSTSNAQSGRAAAIARRNAQVKGKGYTASAAPAAPRKPAAPVAEPVVAAAPAPSQPSRSRRKVSVAPTATPAASAAGREAAKLKRQQQKNGKSSAGAANAMPHPKAKAKQKPEEPIVEPRQAKAEKPTKRSERRTGVKPQVASQQPSGRLQSKAYRKAQAKGKAGQEAFKSNGSSQSGAKAKLANPDASTREIAQQVRAERCAQGKTCSTGGSRPMRKRRNAKEAPQKVGESQTLHGQSVSGTQVGQGEKKMTGSESGACQLVSGTEYLGAEEFSKNCDVQPTPQPAKVTQTQTTRGQVVSGSTKVGRSDKMTGNETGTCSAITGTEYLPADQSKMYCGETPAKSKATGFSVMSQATQKSEQKVTGGDSRKSQSTTFKPKNPASAPHKVMPSQTAKGNTTTGSQVGRLESVTGGERGSCHAVTGTGYQGAEEAKACDMPMTETADKVTASGTAGGQKVTGDRSGAYYGMTGAEAGDCKTITGTSYTGTEQFQFCSVDEQNEMKVRQRKGANPSISGVQPGPQGLTGAQKGACELVTGSHYQGGDQTAMVCDSTNAAAPGESDFPAMIGQAQPAFSTNEVEPMVDEGSKITGDGWDRGSKVTGTDGPWAAQRNASIRGVAGQSPMGASQYRPVNNEVPMSPITGSSGNTDTGAKVTLSGGARA
MAHHHHHHMAILYNRITGLKDSVYGEGLQCRILGLDEIKVFNIRIRPRVLKTMTGTKDLQMVNISLRVLFRPQTDRLPQIYREFGMDYDERILPSISNEILKAVVAEYKAEELIQKRDVVSARIYQLMQSKVSQFGLVLEDLSLVDIQFGKEFMVAVEQKQVAQQEAERFRYVVLENEQKRRAAVVRAEGEAESARLISEAIQRSGGGLLELRRIEAAVDIASKLIPMRNVTFLPGGSNMLLHMKSHQASEQAH
MSLDLDRKLIEILDILSKSKEPVGAKIIAKELNKRGYKIGERAVRYHLKLLDGMKLTKKVGYAGRVITERGLEELEKANISYRLGSIYSNILEKTISANYRFGYVVINRCQVYADFNDVLKIIKSVYESGLAVGDRVGIIDREKFVEINTLCSLNFDNILLQNGIFPLHVCAGVVKYEDGKPVEFKEIIDYKSTSIDPLRAFIEKKETDVMGIIENGEGYLPANFRYFGVEFLERFETILEIDELKCIISYGTENVLGLDVGDDKVGVALIGGLTPIAPFVENNYCVEICPMSSIVRLESLHKLKKNPRDIVTKKANIRIKTALSKMFNAMAKVTYDIDEADGDVIVNTAFIDKKYLDEAFDILKEAYKKGLGISDRFGIVEENDRIKIQTICAVTLDGIFLRNSVPLIPKYGGILEITEDKERFIDIIGYDGSSLDPHEVFFNFVDCEKTFLAGFREVHRVAREKLEEVLKKLNWNGIKAIGEPNNELYGIGVNKDMCGVVTMGGINPLVLLKENEIPIELKAMHEVVRFSDLKSYKEIEGHHHHHH
MGHHHHHHSHNLGPRLTPLLQEEDSHQRLLMGLMVSELKDHFLRHLQGVEKKKIEQMVLDYISKLLDLICHIVETNWRKHNLHSWVLHFNSRGSAAEFAVFHIMTRILEATNSLFLPLPPGFHTLHTILGVQCLPLHNLLHCIDSGVLLLTETAVIRLMKDLDNTEKNEKLKFSIIVRLPPLIGQKICRLWDHPMSSNIISRNHVTRLLQNYKKQPRNSMINKSSFSVEFLPLNYFIEILTDIESSNQALYPFEGHDNVDAEFVEEAALKHTAMLLGL
MTMPDYDLIAILGPTASGKTPFAAALAAELNTEIISADSRQIYRGMDLGTGKDLEDYTINGRQIPYHLIDIADPGYKYNVFEYQRDFLTAYETIKQKGCLPVLCGGTGLYLESVLKGYRLIPVPENQELRVRLAEKSLEELTAILSSYKTLHNSTDVDTVKRAIRAIEIEEYYAKTPIEEREFPQLNSLIIGVDIDRELRREKITRRLKQRLDDGMVEEVRRLLAEGIQPDDLIYYGLEYKYLTLYAIGKMTYDEMFTGLETAIHQFAKRQMTWFRGMERRGFTIHWVDASLPMEEKINFVKQKLKEFLEHHHHHH
MKLTVVGLGYIGLPTSIMFAKHGVDVLGVDINQQTIDKLQSGQISIEEPGLQEVYEEVLSSGKLKVSTTPDASDVFIIAVPTPNNDDQYRSCDISLVMRALDSILSFLEKGNTIIVESTIAPKTMDDFVKPVIENLGFTIGEDIYLVHCPERVLPGKILEELVHNNRIIGGVTEACIEAGKRVYRTFVQGEMIETDARTAEMSKLMENTYRDVNIALANELTKICNNLNINVLDVIEMANKHPRVNIHQPGPGVGGHCLAVDPYFIIAKDPENAKLIQTGREINNSMPAYVVDTTKQIIKVLSGNKVTVFGLTYKGDVDDIRESPAFDIYELLNQEPDIEVCAYDPHVELDFVEHDMSHAVKDASLVLILSDHSEFKNLSDSHFDKMKHKVIFDTKNVVKSSFEDVSYYNYGNIFNFIDK
MENKEKIFNAQHPLSNVNARSITYRSGGKSPKSPRRVDEENKTDEELGDALGISHRCDECDEMMKFETWVERQDAILECGHGYCKKCIPNIKKDAHTLTKCPVVAVKCRIPNWYQTGQAAKPSHRKSEAARKEYSTKAKLWNFEYKGRPLVVSLRRDATYGDLETSLSMLLNIDLKTNMILIHLPHSYNGADVNYFMKADDSLTNGPYEKDTKLSHLRHPKIAALSLEVTEKKTPSSETPSKENPKSPGPLDSNK
